From publication PMC12285266, “Function and regulation of pob genes for 4-hydroxybenzoate catabolism in Agrobacterium tumefaciens” (Applied and Environmental Microbiology, 2025)

Tests used:
[1] = target: T1, PobR (HIS-atu4545) (Agrobacterium tumefaciens C58) (UniProt Q7CV81); assay: competition; details: EMSA: per 50 mL binding buffer 0.394 g Tris-base, 0.186 g KCl, 0.019 g EDTA-2Na, 10% glycerol, 0.008 g DTT (about 65 mM Tris, 50 mM KCl, 1 mM EDTA, 1 mM DTT) …
T1 sequence: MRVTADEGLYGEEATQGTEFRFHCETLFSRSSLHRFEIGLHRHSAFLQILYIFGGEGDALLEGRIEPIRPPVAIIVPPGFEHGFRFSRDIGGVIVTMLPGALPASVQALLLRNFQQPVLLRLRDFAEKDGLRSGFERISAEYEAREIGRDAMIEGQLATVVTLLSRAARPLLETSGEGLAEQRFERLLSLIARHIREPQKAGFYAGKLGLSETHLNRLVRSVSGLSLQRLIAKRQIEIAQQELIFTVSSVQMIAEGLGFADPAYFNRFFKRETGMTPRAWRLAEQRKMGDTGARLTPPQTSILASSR

[2] = target: T2, PobA (Atu4544), GST-atu4544 (Agrobacterium fabrum, UniProt Q7CV80); assay: HPLC of substrate consumption and protocatechuate formation; assay type: biochemical; details: NADPH or NADH 0.4 mM, FAD 5 uM, 0.5 mM substrate, 50 mM Tris-Cl pH 7.4, 30 C; GST-tagged enzyme
T2 construct: full ORF (1,173 bp) in pGEX-4T-1, N-terminal GST tag kept, E. coli BL21(DE3), about 70 kDa with tag

[3] = target: T3, PobR (Atu4545), HIS-atu4545 (Agrobacterium fabrum, UniProt Q7CV81); assay: EMSA, effect on PobR/DNA complex formation; assay type: binding; details: FAM-labelled atu4544-atu4545 intergenic DNA; varying concentrations; pH 8.0, 25 C
T3 construct: full ORF (924 bp) in pET30a, N-terminal His tag kept, E. coli BL21(DE3)
T3 sequence (Q7CV81 1-307): T1 sequence

T2 sequence (Q7CV80 1-390): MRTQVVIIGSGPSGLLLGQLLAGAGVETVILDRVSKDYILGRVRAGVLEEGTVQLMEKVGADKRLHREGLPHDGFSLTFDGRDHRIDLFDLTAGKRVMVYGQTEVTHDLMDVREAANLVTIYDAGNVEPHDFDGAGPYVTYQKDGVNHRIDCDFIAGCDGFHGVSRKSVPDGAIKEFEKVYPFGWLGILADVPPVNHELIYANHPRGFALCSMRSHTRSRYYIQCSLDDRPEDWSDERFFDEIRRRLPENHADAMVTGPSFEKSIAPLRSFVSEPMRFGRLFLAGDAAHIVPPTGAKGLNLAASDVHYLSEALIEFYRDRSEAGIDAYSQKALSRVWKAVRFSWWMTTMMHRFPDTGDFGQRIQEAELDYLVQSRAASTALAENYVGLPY

Compound | binding [1] | also measured
CATCTCACCATCACTCCTCCGTGCGATGGTCGGATTGTGCAATTTACAGACAGAAAAGTCCATTGAGCTTGTGGCCGGTCTTGGTCAATTTCTTGACCGGAGACAAGTTCGGGAGGACATCATCGTCGACCTGCAGGCA (double strand) [unlabeled intergenic competitor] | binds | 
O=C(O)c1ccc(O)cc1 [4-hydroxybenzoate] |  | HPLC of substrate consumption and protocatechuate formation [2]: Atu4544 (PobA) catalyzed the hydroxylation of 4-hydroxybenzoate to produce protocatechuate
O=C(O)CCCCC(=O)O [adipic acid] |  | EMSA, effect on PobR/DNA complex formation [3]: The increased adipic acid seemed to hinder the binding of the PobR/DNA probe
CATCGTGACGATCACTCCACCGATATCGCGTGAAAAGCGGAAGCCATGTTCGAAACCCGGTGGCACGATGATGGCGACCGGCGGGCGGATCGGCTCGATGCGGCCTTCCAGCAACGCATCGATCGTCGACCTGCAGGCA (double strand) [unrelated DNA (pobR-inter)] | no binding | 
